Data from patent publication US20220073596A1 (CITRYLL B V, published 2022).
Where no end group is shown, it is not given here. [ ]: non-standard residue; d: D form. Cit = NC(=O)NCCC[C@H](N)C(=O)O

Legend:
[1] = target: T1, N-terminal citrullinated peptide of Histone H2A (SEQ ID NO: 1), SGCitGKQGGKARA (also: biotin, place not given here); test: peptide ELISA, biotin peptide on neutravidin
T1 peptide: SG[Cit]GKQGGKARA
Procedure: Optical density was measured by 450 nm and is a measure for the affinity of the antibodies used.

[2] = target: T2, Arginine containing control peptide of Histone H2A N-terminus (SEQ ID NO: 3), SGRGKQGGKARA (free N-terminal NH2 group); test: peptide ELISA
T2 construct: Control peptide with arginine in place of citrulline
T2 peptide: SGRGKQGGKARA

B1: Mouse monoclonal antibody Rmmab22.101 (antibody, V domains shown)
VH: RIQLVQSGPELKKPGEAVKISCKASGYTFTNYGMHWMKQTPGKDFRWMGWINTYSGEATYVDDFKGRFAFSLGTSASTAYLQINNLKNDDTATYFCLRGYTYQSFDEGGDYWGQGTALTVSS
VL: not shown
notes: Mouse monoclonal from hybridoma DSMZ ACC 3031; also called MQ22.101
binding result [1]: binds | binding result [2]: no binding
